Experimental data from the Immune Epitope Database (IEDB).

Tests used:
HLA-B*15:02 = assay: IEDB peptide-MHC binding, purified MHC/direct/fluorescence; filed as Kd, often an IC50 or EC50 that approximates it; ≥ and ≤ were set here for values at or beyond the usual limits of such assays; settings: source organism: dengue virus type 4
HLA-B*46:01 = assay: as above; settings: source organism: dengue virus type 4
HLA-A*01:01 = assay: IEDB peptide-MHC binding, purified MHC/competitive/radioactivity; filed as Kd, often an IC50 or EC50 that approximates it; ≥ and ≤ were set here for values at or beyond the usual limits of such assays; settings: source organism: Dengue virus 4 Philippines/H241/1956
HLA-A*30:02 = assay: as above; settings: source organism: Dengue virus 4 Philippines/H241/1956
HLA-A*32:01 = assay: as above; settings: source organism: Dengue virus 4 Philippines/H241/1956
HLA-B*57:01 = assay: as above; settings: source organism: Dengue virus 4 Philippines/H241/1956
HLA-A*02:01 = assay: IEDB peptide-MHC binding, purified MHC/competitive/radioactivity; ≥ and ≤ were set here for values at or beyond the usual limits of such assays; settings: source organism: Toxoplasma gondii
HLA-A*11:01 = assay: as above; settings: source organism: Toxoplasma gondii
HLA-B*07:02 = assay: as above; settings: source organism: Toxoplasma gondii

In the case of RTWAYHGSY, the Kd (HLA-B*15:02) is reported as at least 20000 nM, the Kd (HLA-B*46:01) is reported as at least 20000 nM and the Kd (HLA-A*01:01) is reported as 1280 nM. For the same sequence, the Kd (HLA-A*30:02) was 0.19 nM, the Kd (HLA-A*32:01) was 1.46 nM and the Kd (HLA-B*57:01) was 15.8 nM.
STFWPCLLR showed an IC50 (HLA-A*02:01) of 27000 nM, an IC50 (HLA-A*11:01) of 9.3 nM and an IC50 (HLA-B*07:02) of at least 50000 nM.
